Measured values: publication PMC10943277 (The Journal of Cell Biology, 2024)

Biological target: T1, Sly1 (wild-type) (S. cerevisiae, UniProt P22213 1-666)
T1 sequence: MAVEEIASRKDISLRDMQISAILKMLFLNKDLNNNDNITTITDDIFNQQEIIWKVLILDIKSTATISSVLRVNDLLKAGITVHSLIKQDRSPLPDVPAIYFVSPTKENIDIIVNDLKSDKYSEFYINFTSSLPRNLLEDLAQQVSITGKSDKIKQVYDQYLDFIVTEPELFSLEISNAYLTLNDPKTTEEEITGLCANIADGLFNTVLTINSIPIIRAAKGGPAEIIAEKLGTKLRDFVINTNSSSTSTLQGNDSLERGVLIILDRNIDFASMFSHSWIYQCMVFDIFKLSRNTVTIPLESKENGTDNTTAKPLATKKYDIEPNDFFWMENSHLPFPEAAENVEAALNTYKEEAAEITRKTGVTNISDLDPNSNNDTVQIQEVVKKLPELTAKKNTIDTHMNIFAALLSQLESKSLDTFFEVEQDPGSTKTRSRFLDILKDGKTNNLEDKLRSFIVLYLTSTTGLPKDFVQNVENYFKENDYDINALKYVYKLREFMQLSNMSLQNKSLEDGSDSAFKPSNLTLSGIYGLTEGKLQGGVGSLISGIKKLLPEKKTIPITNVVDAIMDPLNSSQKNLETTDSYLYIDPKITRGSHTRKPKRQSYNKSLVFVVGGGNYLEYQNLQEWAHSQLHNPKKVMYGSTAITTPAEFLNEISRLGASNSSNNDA
Test: pull-down

binding result: binds
B1: GST-Sed5 cytoplasmic domain (domain or fragment, S. cerevisiae, UniProt Q01590 1-319, looked up)
chain: MNIKDRTSEFQQSVLSYKKRNKNFREQQRERLQEKESENFANNTTGNGKSVSEFQKKASGIAHEISSTAQLLSKLAVLAKRKPMFNDNPVEIAELSFLIKRKIYAIEQSLVQLSQLKKTDVNGNTSNQSSKQPSAVQHSKNVVNLLNTQMKNISGSFKDVLEERQRLEMANKDRWQKLTTDTGHAPADDQTQSNHAADLTTYNNSNPFMTSLLDESSEKNNNSSNQGELSFPQNDSQLMLMEEGQLSNNVYLQERNRAVETIESTIQEVGNLFQQLASMVQEQGEVIQRIDANVDDIDLNISGAQRELLKYFDRIKSNR
